The record followed here is the supplement of paper PMC9170038.

This data set deals with MS2 coat protein. The data set is described as follows: apparent KD of MS2 coat protein; designed switch direction (-1 OFF switch, 1 ON switch): -1; higher = weaker reporter binding. An outline of the steps:
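The apparent KD reported per design is the median over clusters of curve fits to normalised cluster fluorescence. The RNA switches were transcribed on Illumina chips by stalled E. coli RNA polymerase. SNAP-549-labelled MS2 coat protein was titrated from 0.7 or 1.5 nM, doubling up to 3 µM, in Tris-HCl pH 7.5 buffer containing KCl, MgCl2, BSA, DTT, tRNA and Tween-20, with no input, 200 uM small-molecule ligand, or an oligonucleotide input.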

Setting [1] is: input ligand: microRNA oligo, concentration not stated.
Where [2] appears, read: Eterna round: R95, input ligand: microRNA oligo, concentration not stated.

As for “UUAAAUCAUGUAGGAUAUGCGUGGAGAAACUAUGCAGAAGGACAUGAGGAUCACCCAUGUGCUUCCGUCUGAGAACAGACGGUA [Mat - Exclusion NG 1 - Mod of JL - D14] (Eterna round: R96, puzzle: Exclusion NG 1)”, the “apparent KD of MS2 coat protein” value (input ligand: FMN 200 uM) was 285 nM, the “apparent KD of MS2 coat protein” value under setting [1] was 43.2 nM and the “apparent KD of MS2 coat protein” value (input ligand: none) is 57.9 nM.

As for “UUAAAUCAUGUAGGAUAUGCGUGGCGAAGCUAUGCAGAAGGACAUGAGGAUCACCCAUGUGCUUCCGUCUGAGUACAGACGGUA [Mat - Exclusion NG 1 - Mod of JL - D11] (Eterna round: R96, puzzle: Exclusion NG 1)”, the “apparent KD of MS2 coat protein” value is, setting by setting: (input ligand: FMN 200 uM) 221 nM; under setting [1], 106 nM; (input ligand: none) 101 nM.

Consider “UUAAGGGACUGAGGAUAUACAUGAAUUAUUUUUGUAGAAGGCAGAUUGUUAGUUUAUUCACUAUACAUGAGGAUCACCCAUGUU [JR_ExcNG1_Sub020] (Eterna round: R96, puzzle: Exclusion NG 1)”, for which the “apparent KD of MS2 coat protein” value under setting [1] is 18.3 nM.

On to “UUAAUAUAUCAGGAUAUGAUUAUAUGUGUUAAAUCAGAAGGGAUAACAUGAGGAUCACCCAUGUUGUGGAGUGA [JR_Ex6_Sub033] (Eterna round: R97, puzzle: Exclusion 6)”, for which the “apparent KD of MS2 coat protein” value is, setting by setting: (input ligand: FMN 200 uM) 303 nM; (input ligand: none) 92.8 nM.

For “UUAAUAUAUGUAGGAUAUGCGUGGCGAAGCUAUGCAGAAGGACAUGAGGAUCACCCAUGUUCCAGCGUCCGCGUACGGAUGCAA [JL Eng1 1.21 mod 11] (Eterna round: R96, puzzle: Exclusion NG 1)”, the “apparent KD of MS2 coat protein” value was 16 nM (input ligand: FMN 200 uM), 12.3 nM under setting [1] and 13.3 nM (input ligand: none).

For “UUAAUUAAUUAAGCGCAAGAUCACAUGAGGAUCACCCAUGUAUAGGAUAUCAGCUCGUGUAGAGCUGAGAAGGAUACAUAGCGC [ExNG3/2-A3] (Eterna round: R96, puzzle: Exclusion NG 3)”, the “apparent KD of MS2 coat protein” value was 1030 nM (input ligand: FMN 200 uM), 184 nM under setting [1] and 143 nM (input ligand: none).

On to “UUACCUAGUGUUAGGAUAUGCGACGGGUGACCGUUGCAGAAGGAACAUGAGGAUCACCCAUGUUUAAUAAAAUC [JL-BMX4-4.45 ViennaUCT mod] (Eterna round: R97, puzzle: Brourd's mod of Exclusion 4)”, for which the “apparent KD of MS2 coat protein” value was found to be 53.1 nM (input ligand: FMN 200 uM) and 12.6 nM (input ligand: none).

For the sequence “UUACUCCUCGCUUGGUCACACAUGAGGAUCACCCAUGUGGGAUGCCAUGGCGUCUCAUCAAGCUUCUUUUGCUCGUG [Eternabot (Original) Solution 26] (Eterna round: R97, puzzle: Sensor, turn-off variant 1)”, the “apparent KD of MS2 coat protein” value is 20.9 nM (input ligand: FMN 200 uM) and 23.8 nM (input ligand: none).

With “UUAGUAUUGCAAGGAUAUGUUUAUGUUUAUUUUCCUCUUACAUGAGGAUCACCCAUGUUUAACUUACAGAAGGUGCUAUGAUUU [JR_ExcNG2_Sub032] (Eterna round: R96, puzzle: Exclusion NG 2)”, the “apparent KD of MS2 coat protein” value worked out at 1120 nM (input ligand: FMN 200 uM), 477 nM under setting [1] and 1030 nM (input ligand: none).

Consider “UUAUACCUAGGAUAUACCUUUGGGUGUAGCCUAAUGUCUGGACAUGAGGAUCACCCAUGUAGAAGGAGGCGAAA [EX2 A.7] (Eterna round: R97, puzzle: Exclusion 2)”, for which the “apparent KD of MS2 coat protein” value runs as follows: (input ligand: FMN 200 uM) 244 nM; (input ligand: none) 78 nM.

Consider “UUAUAUAAUGUGAGGAUAUGCUGGUCGAGAGAUCAGCAGAAGGCACAUGAGGAUCACCCAUGUAGUAAAUUUUA [Mat - Exclusion 4 - JL Mod - D14] (puzzle: Brourd's mod of Exclusion 4)”, for which the “apparent KD of MS2 coat protein” value under setting [2] was determined as 19.8 nM.

“UUAUAUAGUGUGAGGAUAUGCUGGUCCUUGGAUCAGCAGAAGGCACAUGAGGAUCACCCAUGUAGUUAAUUAUA [Mat - Exclusion 4 - JL Mod - D15] (puzzle: Brourd's mod of Exclusion 4)”: the “apparent KD of MS2 coat protein” value under setting [2] is 30.1 nM.

As for “UUAUCUACUGAGGAUAUUAUAUUACCCGACUGAUAAGAAGGCAGUACAUGAGGAUCACCCAUGUGGGUAGCCAU [Polaris11] (Eterna round: R97, puzzle: Exclusion 6)”, the “apparent KD of MS2 coat protein” value (input ligand: FMN 200 uM) turned out to be 23.2 nM and the “apparent KD of MS2 coat protein” value (input ligand: none) amounted to 20.8 nM.

Turning to “UUAUUAAGUGUGAGGAUAUGCUGGUCCUUGGAUCAGCAGAAGGCACAUGAGGAUCACCCAUGUACAUUAUUUUA [Mat - Exclusion 4 - JL Mod - D28] (puzzle: Brourd's mod of Exclusion 4)”, the “apparent KD of MS2 coat protein” value under setting [2] is 31.6 nM.

Turning to “UUAUUACAAGCAAGAUCCCACAUGAGGAUCACCCAUGUGCUCGUCUUAUAAGGUACAGUGACGAAAGUCACAGUACC [Sensor 3, v1 - 0] (Eterna round: R96, puzzle: Sensor v3, turn-off variant 1)”, the “apparent KD of MS2 coat protein” value (input ligand: FMN 200 uM) worked out at 23.1 nM, the “apparent KD of MS2 coat protein” value under setting [1] is 369 nM and the “apparent KD of MS2 coat protein” value (input ligand: none) came to 25.9 nM.

Regarding “UUAUUACAAGCAAGAUCCCACAUGAGGAUCACCCAUGUGCUCGUCUUAUAAGGUACAGUGACGAAAGUCACAGUACC [Sensor 3, v1 - 0] (puzzle: Sensor v3, turn-off variant 1)”, the “apparent KD of MS2 coat protein” value was found to be 29.4 nM (Eterna round: R95, input ligand: FMN 200 uM); 795 nM under setting [2]; 22.3 nM (Eterna round: R95, input ligand: none).

On to “UUAUUAUAUGUAGGAUAUGCAUAUUAUUAUUAUGCAGAAGGACAUGAGGAUCACCCAUGUAUAUUAUUGUUAUAUAUUAUAUAU [Title] (Eterna round: R96, puzzle: Exclusion NG 1)”, for which the “apparent KD of MS2 coat protein” value under setting [1] was 21 nM.

On to “UUAUUGUGAGGAUAUCCAAUAUAUGACAUGAGGAUCACCCAUGUUUCCACUCGUACCUCCGGAGAAGGCACUUAUA [Ex5 #47] (Eterna round: R97, puzzle: Exclusion 5)”, for which the “apparent KD of MS2 coat protein” value (input ligand: FMN 200 uM) is 28.6 nM and the “apparent KD of MS2 coat protein” value (input ligand: none) is 32.3 nM.

“UUCACAUGGACAUAAGAUCACAUGAGGAUCACCCAUGUGAAUAACAAGCUUUUUGUUCGUCUUAUGUCCAAUAAUAU [Stov1/14-B3] (Eterna round: R97, puzzle: Sensor, turn-off variant 1)”: the “apparent KD of MS2 coat protein” value (input ligand: FMN 200 uM) stood at 13.9 nM and the “apparent KD of MS2 coat protein” value (input ligand: none) is 12.2 nM.

For “UUCAUGUGAGGAUAUAGUACUUCUUCUAUUAUUAUUGAGUACUAGAAGGCACAUGAGGAUCACCCAUGUAGUAC [Ex4 - 3 - 43] (Eterna round: R96, puzzle: Exclusion 4)”, the “apparent KD of MS2 coat protein” value by setting is: (input ligand: FMN 200 uM) 21.8 nM; under setting [1], 22.1 nM; (input ligand: none) 39.1 nM.

Consider “UUCAUGUGAGGAUAUAGUACUUCUUCUAUUAUUAUUGAGUACUAGAAGGCACAUGAGGAUCACCCAUGUAGUAC [Ex4 - 3 - 43] (puzzle: Exclusion 4)”, for which, under setting [2], the “apparent KD of MS2 coat protein” value was 39.1 nM.

For the sequence “UUCAUGUUAGGAUAUUCCGCUGCAGAGAAAGAGUGCAGAAUGAAGAAGGGACAUGAGGAUCACCCAUGUUCCAA [EX4 A.8] (Eterna round: R97, puzzle: Exclusion 4)”, the “apparent KD of MS2 coat protein” value is 19.5 nM (input ligand: FMN 200 uM) and 15.5 nM (input ligand: none).

As to “UUCCAACGAGGAUAUCGAUGGUGGAACAUGAGGAUCACCCAUGUAUGAGAUAGUGUAGUUCGAGAAGGCGUUCAGU [JR_E5_Sub055] (puzzle: Exclusion 5)”, the “apparent KD of MS2 coat protein” value under setting [2] was found to be 41.9 nM.

As for “UUCCCGCGCGUGAGGAUAUGCUGAUCCCAGGAUUAGCAGAAGGCACAUGAGGAUCACCCAUGUCCAACUUGUCU [LRO-BmodExc4-14- Bluer = mod of Colors by Tatyana Zabanova] (Eterna round: R97, puzzle: Brourd's mod of Exclusion 4)”, the “apparent KD of MS2 coat protein” value reads like this: (input ligand: FMN 200 uM) 38.5 nM; (input ligand: none) 31.6 nM.

As for “UUCCGACAUGAGGAUCACCCAUGUAAGGAUAUGCACUAGAGGGCAAACCCUCUUAACGGCAGAAGGUGCAGGGA [Qudile] (Eterna round: R97, puzzle: Exclusion 1)”, the “apparent KD of MS2 coat protein” value is, setting by setting: (input ligand: FMN 200 uM) 115 nM; (input ligand: none) 15 nM.

Regarding “UUCCUCACUUCUUUGUCUCACAUGAGGAUCACCCAUGUAAUAUAGGAUAUGCUUAGUAUUUAUAUGCAGAAGGAUAUUAGUAUU [JR_ExcNG3_Sub084] (Eterna round: R96, puzzle: Exclusion NG 3)”, the “apparent KD of MS2 coat protein” value reads like this: (input ligand: FMN 200 uM) 157 nM; under setting [1], 39.8 nM; (input ligand: none) 55.5 nM.

For the sequence “UUCCUGUCAGGAUAUGACUAGAUGCACGUUAGUGUGUUUACUUAGAAGGGACAUGAGGAUCACCCAUGUAUUCC [Bring Us a Shrubbery-15] (puzzle: Exclusion 4)”, under setting [2], the “apparent KD of MS2 coat protein” value turned out to be 25.1 nM.

As to “UUCGUGCAGCUUUGCUGUACGCGUACAUGAGGAUCACCCAUGUAGGAUAUGGUAGGCUUUGCUUACUAGAAGGAUAUAGUGAUC [JL EXNG3 1.31] (Eterna round: R96, puzzle: Exclusion NG 3)”, the “apparent KD of MS2 coat protein” value under setting [1] is 138 nM.

For “UUCGUGCUGCUUUGCUGUACGAGUACAUGAGGAUCACCCAUGUAGGAUAUGGUACGCUUUGCGUGCUAGAAGGAUAUGUGUUGC [salish99_ExNG3_r04_506] (Eterna round: R96, puzzle: Exclusion NG 3)”, the “apparent KD of MS2 coat protein” value by setting is: (input ligand: FMN 200 uM) 24.6 nM; under setting [1], 16.9 nM; (input ligand: none) 24 nM.

With “UUCUUACGAGGAUAUCGAUGGUGGAACAUGAGGAUCACCCAUGUAUGAGAUAUUGUAUUUCGAGAAGGCGUUCAGU [JR_E5_Sub058] (puzzle: Exclusion 5)”, the “apparent KD of MS2 coat protein” value under setting [2] came to 51.6 nM.

With “UUCUUUACACGAGGAUAUCAUACAUGAGGAUCACCCAUGUUGCUUUGUCUGUUUUUAUGUAUUAUUGAGAAGGCGUUUUUCUUU [JR_ExcNG2_Sub076] (Eterna round: R96, puzzle: Exclusion NG 2)”, the “apparent KD of MS2 coat protein” value reads like this: (input ligand: FMN 200 uM) 21.9 nM; under setting [1], 19.7 nM; (input ligand: none) 23.7 nM.
